# Experiments:
# Experiment in all cases: Crosslinking/co-immunoprecipitation/mass spectrometry (TMT quantitative proteomics) to identify irisin receptors
# Format in all cases: binding
# [1] = target: T1, MLO-Y4 cell surface proteins (Mus musculus, UniProt C0HKE1); conditions: co-precipitated protein Hist1h2ab (H2A1_MOUSE)
# T1 construct: endogenous in cells; host or cells: MLO-Y4
# Method in brief: (§1)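 Mouse MLO-Y4 cells were switched to serum-free FreeStyle medium for 4 h, chilled, then exposed to 10 nM His-tagged irisin (or adipsin as control) for 20 min. Cells were crosslinked with 1.5 mM DTSSP (30 min, ice), and bound proteins were pulled down on Ni-NTA and eluted with 250 mM imidazole. Eluates were separated by SDS-PAGE, trypsin-digested in gel, TMT 6-plex labelled and quantified by MS3-based LC-MS/MS on an Orbitrap Fusion Lumos.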
# [2] = target: T2, MLO-Y4 cell surface proteins (Mus musculus, UniProt O35143); conditions: co-precipitated protein Atpif1 (ATIF1_MOUSE)
# T2 construct: endogenous in cells; host or cells: MLO-Y4
# T2 sequence (O35143 26-106): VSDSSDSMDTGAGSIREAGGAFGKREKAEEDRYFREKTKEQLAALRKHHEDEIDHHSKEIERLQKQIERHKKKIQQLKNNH
# Method in brief: as §1
# [3] = target: T3, MLO-Y4 cell surface proteins (Mus musculus, UniProt P39654); conditions: co-precipitated protein Alox15 (LOX15_MOUSE)
# T3 construct: endogenous in cells; host or cells: MLO-Y4
# T3 sequence (P39654 1-663): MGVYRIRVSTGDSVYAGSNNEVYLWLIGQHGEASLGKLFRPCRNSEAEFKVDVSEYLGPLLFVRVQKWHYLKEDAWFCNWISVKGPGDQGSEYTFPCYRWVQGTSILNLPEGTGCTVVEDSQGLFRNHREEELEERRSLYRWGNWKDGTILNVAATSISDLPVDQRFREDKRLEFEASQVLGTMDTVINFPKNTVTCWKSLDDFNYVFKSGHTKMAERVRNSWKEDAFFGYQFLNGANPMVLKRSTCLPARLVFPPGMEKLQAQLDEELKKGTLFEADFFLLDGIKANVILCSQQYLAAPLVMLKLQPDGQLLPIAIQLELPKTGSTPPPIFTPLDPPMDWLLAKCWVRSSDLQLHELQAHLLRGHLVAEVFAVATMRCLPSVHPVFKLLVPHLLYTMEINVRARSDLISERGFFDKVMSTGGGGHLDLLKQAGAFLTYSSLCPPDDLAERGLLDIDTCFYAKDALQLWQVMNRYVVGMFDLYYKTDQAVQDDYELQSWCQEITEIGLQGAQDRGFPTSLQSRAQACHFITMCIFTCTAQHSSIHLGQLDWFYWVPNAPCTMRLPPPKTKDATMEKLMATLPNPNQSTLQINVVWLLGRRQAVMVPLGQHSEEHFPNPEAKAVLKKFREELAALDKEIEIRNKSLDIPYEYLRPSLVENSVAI
# Method in brief: as §1
# [4] = target: T4, MLO-Y4 cell surface proteins (Mus musculus, UniProt P62880); conditions: co-precipitated protein Gnb2 (GBB2_MOUSE)
# T4 construct: endogenous in cells; host or cells: MLO-Y4
# T4 sequence (P62880 whole entry): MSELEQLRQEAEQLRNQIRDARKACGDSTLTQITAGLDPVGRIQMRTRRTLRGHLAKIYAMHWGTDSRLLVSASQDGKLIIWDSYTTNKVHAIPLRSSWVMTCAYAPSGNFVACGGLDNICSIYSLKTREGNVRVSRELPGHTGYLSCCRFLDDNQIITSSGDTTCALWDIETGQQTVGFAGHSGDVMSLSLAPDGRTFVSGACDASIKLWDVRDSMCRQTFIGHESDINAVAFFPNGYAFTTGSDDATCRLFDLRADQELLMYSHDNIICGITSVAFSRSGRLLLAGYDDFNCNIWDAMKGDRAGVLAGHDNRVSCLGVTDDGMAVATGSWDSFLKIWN
# Method in brief: as §1
substance,measurement,setting,value
adipsin,TMT signal-to-noise ratio,[1],273.934
same,TMT signal-to-noise ratio,[2],454.155
same,TMT signal-to-noise ratio,[3],141.336
same,TMT signal-to-noise ratio,[4],294.957

# From patent US20210063414A1, “METHODS FOR PREVENTING AND/OR TREATING BONE LOSS CONDITIONS BY MODULATING IRISIN” (Dana-Farber Cancer Institute, Inc., priority 2018, published 2021)
